We go through one molecule from PMC7666158, “Co-regulation of the transcription controlling ATF2 phosphoswitch by JNK and p38” (Nature Communications, 2020).

Broadly, the Kd is a measure of binding affinity in units of concentration. Usually koff stands for the rate constant with which the complex falls apart. A low value points to a long-lived complex. The term kon denotes a measure of how fast the partners come together. Lower therefore signals slower complex formation.

In experiment [1] the target is T1, pp-p38 (activated, double-phosphorylated p38alpha) (human, UniProt Q16539 1-360, double-phosphorylated on the activation loop (pp-p38; T180/Y182 as named for the anti-pp-p38 antibody; pY182 in Fig. 5b)).
T1 construct: human p38alpha (MAPK14), phosphorylated form; also called pp-p38α; source: E. coli, co-expressed with constitutively active GST-tagged MAP2Ks, purified
Briefly: in vitro kinase assay fitted with a kinetic model; 5 nM pp-JNK or pp-p38, MBP-ATF2(19-100) substrate 0.5-100 uM, 5 mM ATP, kinase buffer; p-T71 and p-T69/T71 by quantitative dot-blots; binding rates (kon, koff) and reaction rates fitted simultaneously with the BioNetGen model (PyBioNetFit). As to conditions: both partners purified.

The target in experiment [2] is T1, pp-p38 (activated, …). The description is as above. The following applies: both partners purified. This is another data set of the same source.

T1 sequence (Q16539 whole entry): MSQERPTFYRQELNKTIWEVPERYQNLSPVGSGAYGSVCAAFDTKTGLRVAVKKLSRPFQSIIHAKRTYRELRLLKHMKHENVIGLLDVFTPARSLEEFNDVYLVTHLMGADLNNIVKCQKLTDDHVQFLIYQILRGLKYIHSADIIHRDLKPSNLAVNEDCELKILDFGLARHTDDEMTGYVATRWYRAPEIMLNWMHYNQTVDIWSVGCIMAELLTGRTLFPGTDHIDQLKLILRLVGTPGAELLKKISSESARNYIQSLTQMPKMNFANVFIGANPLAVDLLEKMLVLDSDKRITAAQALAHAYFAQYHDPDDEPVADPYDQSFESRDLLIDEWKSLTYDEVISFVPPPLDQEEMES

B1: MBP-ATF2(19-100)-WT (domain or fragment, human, UniProt P15336-1 19-100, looked up)
chain: MSDDKPFLCTAPGCGQRFTNEDHLAVHKHKHEMTLKFGPARNDSVIVADQTPTPTRFLKNCEEVGLFNELASPFENEFKKAS
notes: A TEV site lies between MBP and ATF2; also called MBP-ATF2-His6; ATF2 TAD; source: E. coli BL21(DE3), purified (Ni-NTA, maltose resin); not shown: MBP, N-terminal, kept; His6, C-terminal, kept
Regarding B1, the dissociation constant (Kd) in experiment [1] is about 25 µM. For the same molecule, in experiment [2], the koff turned out to be 429 s⁻¹ and the kon came out at 1.72e+07 M⁻¹ s⁻¹.
